In patent US6500919B1, “Melanoma associated antigenic polypeptide, epitopes thereof and vaccines against melanoma” (IntroGene B.V., priority 1994, dated 2002):

Experiments:
[1] = test system: peptide loaded HLA-A2.1+ T2 cells
HLA-A2.1 = target: T1, HLA-A2.1 (Homo sapiens, UniProt P04439, D140Y/D185E/D98H/E176V/E277Q/G131W/G231S/I119V/I121R/I166T/I218V/L300P/L318F/N151K/N90K/P208A/P217A/Q86G/Q94H/R138H/R169H/T345S); assay: HLA-A2.1 peptide binding assay (HLA-A2.1 stabilization on processing defective T2 cells, flow cytometry with mAb BB7.2)
T1 construct: HLA-A2.1 stabilization at the cell surface was determined by flow cytometry using mAb BB7.2; endogenous in cells; host or cells: T2 cells (processing defective, HLA-A2.1+)

[2] = target: T2, HLA-A2.1 (on processing defective T2 cells) (human); assay: peptide binding assay on processing defective T2 cells
T2 construct: also called MHC HLA-A2.1 molecule

| Molecule | binding to the MHC HLA-A2.1 molecule (HLA-A2.1) | also measured |
| --- | --- | --- |
| CC(C)C[C@H](NC(=O)[C@H](CCCNC(=N)N)NC(=O)[C@H](CC(C)C)NC(=O)[C@@H](NC(=O)[C@H](C)NC(=O)[C@@H](NC(=O)CNC(=O)[C@H](CC(=O)O)NC(=O)[C@H](CC(C)C)NC(=O)[C@@H](N)CC(C)C)[C@@H](C)O)[C@@H](C)O)C(=O)O [L-L-D-G-T-A-T-L-R-L] |  | recognized by anti-melanoma cytotoxic T lymphocytes in the context of HLA-A2.1 [1]: recognized |
| M-L-G-T-H-T-M-E-V (MLGTHTMEV) | bind |  |
| LLDGTATLRL (also called gp100 amino acids 457-466) [gp100 peptide LLDGTATLRL] |  | binding result [2]: binds |

Further lines, with some results ahead:

| binding to the MHC HLA-A2.1 molecule (HLA-A2.1) | Molecule | also measured |
| --- | --- | --- |
| bind | V-L-P-D-G-Q-V-I-W-V (VLPDGQVIWV) |  |
| bind | R-L-M-K-Q-D-F-S-V (RLMKQDFSV) |  |
